From patent US11653679B2, “High-purity steviol glycosides” (PureCircle Sdn Bhd, priority 2014, dated 2023)

experiment: Directed evolution of UGT76G1, Rebaudioside D to Rebaudioside M, round 1 (Example 26); format: biochemical; conditions: 100 μL fresh lysate, 0.5 mM Rebaudioside D, 30° C., pH 7.2
How it was run: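 Conversion and initial rate were determined by HPLC with CAD detection on samples taken at 2, 4, 7 and 24 h. Reactions ran at 30 °C in 50 mM phosphate buffer pH 7.2 with lysate, Rebaudioside D (0.5 mM), UDP-glucose (2.5 mM) and MgCl2 (3 mM).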

| Molecule | conversion Reb D to Reb M after 24 h [%] | initial rate [Reb M area/min] |
| --- | --- | --- |
| UGT76G1var85: UGT76G1 variant, mutations T284L_G348P_F377C_P382M_N409R (protein, UniProt Q6VAB4 1-458, looked up, variant T284L G348P F377C P382M N409R) UDP-glycosyltransferase 76G1: MENKTETTVRRRRRIILFPVPFQGHINPILQLANVLYSKGFSITIFHTNFNKPKTSNYPHFTFRFILDNDPQDERISNLPTHGPLAGMRIPIINEHGADELRRELELLMLASEEDEEVSCLITDALWYFAQSVADSLNLRRLVLMTSSLFNFHAHVSLPQFDELGYLDPDDKTRLEEQASGFPMLKVKDIKSAYSNWQILKEILGKMIKQTKASSGVIWNSFKELEESELETVIREIPAPSFLIPLPKHLTASSSSLLDHDRTVFQWLDQQPPSSVLYVSFGSLSEVDEKDFLEIARGLVDSKQSFLWVVRPGFVKGSTWVEPLPDGFLGERGRIVKWVPQQEVLAHPAIGAFWTHSGWNSTLESVCEGVPMIFSDCGLDQMLNARYMSDVLKVGVYLENGWERGEIARAIRRVMVDEEGEYIRQNARVLKQKADVSLMKGGSSYESLESLVSYISSL | 1.8 | 4.0E+05 |
| UGT76G1var86: UGT76G1 variant, mutations E224A_T284L_V396F_Y397E_I407V (protein, UniProt Q6VAB4 1-458, looked up, variant E224A T284L V396F Y397E I407V) UDP-glycosyltransferase 76G1: MENKTETTVRRRRRIILFPVPFQGHINPILQLANVLYSKGFSITIFHTNFNKPKTSNYPHFTFRFILDNDPQDERISNLPTHGPLAGMRIPIINEHGADELRRELELLMLASEEDEEVSCLITDALWYFAQSVADSLNLRRLVLMTSSLFNFHAHVSLPQFDELGYLDPDDKTRLEEQASGFPMLKVKDIKSAYSNWQILKEILGKMIKQTKASSGVIWNSFKALEESELETVIREIPAPSFLIPLPKHLTASSSSLLDHDRTVFQWLDQQPPSSVLYVSFGSLSEVDEKDFLEIARGLVDSKQSFLWVVRPGFVKGSTWVEPLPDGFLGERGRIVKWVPQQEVLAHGAIGAFWTHSGWNSTLESVCEGVPMIFSDFGLDQPLNARYMSDVLKVGFELENGWERGEVANAIRRVMVDEEGEYIRQNARVLKQKADVSLMKGGSSYESLESLVSYISSL | 1.6 | 3.8E+05 |
| UGT76G1var5: UGT76G1 variant, mutations F22Y_I373L_P382M (protein, UniProt Q6VAB4 1-458, looked up, variant F22Y I373L P382M) UDP-glycosyltransferase 76G1: MENKTETTVRRRRRIILFPVPYQGHINPILQLANVLYSKGFSITIFHTNFNKPKTSNYPHFTFRFILDNDPQDERISNLPTHGPLAGMRIPIINEHGADELRRELELLMLASEEDEEVSCLITDALWYFAQSVADSLNLRRLVLMTSSLFNFHAHVSLPQFDELGYLDPDDKTRLEEQASGFPMLKVKDIKSAYSNWQILKEILGKMIKQTKASSGVIWNSFKELEESELETVIREIPAPSFLIPLPKHLTASSSSLLDHDRTVFQWLDQQPPSSVLYVSFGSTSEVDEKDFLEIARGLVDSKQSFLWVVRPGFVKGSTWVEPLPDGFLGERGRIVKWVPQQEVLAHGAIGAFWTHSGWNSTLESVCEGVPMLFSDFGLDQMLNARYMSDVLKVGVYLENGWERGEIANAIRRVMVDEEGEYIRQNARVLKQKADVSLMKGGSSYESLESLVSYISSL | 3.5 | 2.3E+06 |
| UGT76G1var87: UGT76G1 variant, mutations S241I_L243A_V300A_F314S_N409R (protein, UniProt Q6VAB4 1-458, looked up, variant S241I L243A V300A F314S N409R) UDP-glycosyltransferase 76G1: MENKTETTVRRRRRIILFPVPFQGHINPILQLANVLYSKGFSITIFHTNFNKPKTSNYPHFTFRFILDNDPQDERISNLPTHGPLAGMRIPIINEHGADELRRELELLMLASEEDEEVSCLITDALWYFAQSVADSLNLRRLVLMTSSLFNFHAHVSLPQFDELGYLDPDDKTRLEEQASGFPMLKVKDIKSAYSNWQILKEILGKMIKQTKASSGVIWNSFKELEESELETVIREIPAPIFAIPLPKHLTASSSSLLDHDRTVFQWLDQQPPSSVLYVSFGSTSEVDEKDFLEIARGLADSKQSFLWVVRPGSVKGSTWVEPLPDGFLGERGRIVKWVPQQEVLAHGAIGAFWTHSGWNSTLESVCEGVPMIFSDFGLDQPLNARYMSDVLKVGVYLENGWERGEIARAIRRVMVDEEGEYIRQNARVLKQKADVSLMKGGSSYESLESLVSYISSL |  | 2.1E+07 |
| UGT76G1var88: UGT76G1 variant, mutations A239V_T284I_V310I_Q342K_L379A (protein, UniProt Q6VAB4 1-458, looked up, variant A239V T284I V310I Q342K L379A) UDP-glycosyltransferase 76G1: MENKTETTVRRRRRIILFPVPFQGHINPILQLANVLYSKGFSITIFHTNFNKPKTSNYPHFTFRFILDNDPQDERISNLPTHGPLAGMRIPIINEHGADELRRELELLMLASEEDEEVSCLITDALWYFAQSVADSLNLRRLVLMTSSLFNFHAHVSLPQFDELGYLDPDDKTRLEEQASGFPMLKVKDIKSAYSNWQILKEILGKMIKQTKASSGVIWNSFKELEESELETVIREIPVPSFLIPLPKHLTASSSSLLDHDRTVFQWLDQQPPSSVLYVSFGSISEVDEKDFLEIARGLVDSKQSFLWVIRPGFVKGSTWVEPLPDGFLGERGRIVKWVPQKEVLAHGAIGAFWTHSGWNSTLESVCEGVPMIFSDFGADQPLNARYMSDVLKVGVYLENGWERGEIANAIRRVMVDEEGEYIRQNARVLKQKADVSLMKGGSSYESLESLVSYISSL | 1.6 | 3.8E+05 |
| UGT76G1var89: UGT76G1 variant, mutations F41L_E229A_E231A_F265L_P272A (protein, UniProt Q6VAB4 1-458, looked up, variant F41L E229A E231A F265L P272A) UDP-glycosyltransferase 76G1: MENKTETTVRRRRRIILFPVPFQGHINPILQLANVLYSKGLSITIFHTNFNKPKTSNYPHFTFRFILDNDPQDERISNLPTHGPLAGMRIPIINEHGADELRRELELLMLASEEDEEVSCLITDALWYFAQSVADSLNLRRLVLMTSSLFNFHAHVSLPQFDELGYLDPDDKTRLEEQASGFPMLKVKDIKSAYSNWQILKEILGKMIKQTKASSGVIWNSFKELEESALATVIREIPAPSFLIPLPKHLTASSSSLLDHDRTVLQWLDQQAPSSVLYVSFGSTSEVDEKDFLEIARGLVDSKQSFLWVVRPGFVKGSTWVEPLPDGFLGERGRIVKWVPQQEVLAHGAIGAFWTHSGWNSTLESVCEGVPMIFSDFGLDQPLNARYMSDVLKVGVYLENGWERGEIANAIRRVMVDEEGEYIRQNARVLKQKADVSLMKGGSSYESLESLVSYISSL | 1.2 | 2.1E+05 |
| UGT76G1var90: UGT76G1 variant, mutations E231A_S241I_S274G_Y397Q_Q425E (protein, UniProt Q6VAB4 1-458, looked up, variant E231A S241I S274G Y397Q Q425E) UDP-glycosyltransferase 76G1: MENKTETTVRRRRRIILFPVPFQGHINPILQLANVLYSKGFSITIFHTNFNKPKTSNYPHFTFRFILDNDPQDERISNLPTHGPLAGMRIPIINEHGADELRRELELLMLASEEDEEVSCLITDALWYFAQSVADSLNLRRLVLMTSSLFNFHAHVSLPQFDELGYLDPDDKTRLEEQASGFPMLKVKDIKSAYSNWQILKEILGKMIKQTKASSGVIWNSFKELEESELATVIREIPAPIFLIPLPKHLTASSSSLLDHDRTVFQWLDQQPPGSVLYVSFGSTSEVDEKDFLEIARGLVDSKQSFLWVVRPGFVKGSTWVEPLPDGFLGERGRIVKWVPQQEVLAHGAIGAFWTHSGWNSTLESVCEGVPMIFSDFGLDQPLNARYMSDVLKVGVQLENGWERGEIANAIRRVMVDEEGEYIRENARVLKQKADVSLMKGGSSYESLESLVSYISSL |  | 1.9E+07 |
